Laboratory results as given in the Human Domainome abundance scans (Beltran et al. 2025).
± gives the uncertainty stated by the source.

B1: Transcription factor SOX-4, residues 60 to 127; numbered along this chain, Q06945 (parent)
chain: KRPMNAFMVWSQIERRKIMEQSPDMHNAEISKRLGKRWKLLKDSDKIPFIREAERLRLKHMADYPDYK

Variants of: B1
Experiment: abundance fitness (aPCA) (normalised: wild type 0, dead -1); higher = more abundant; growth selection in yeast, the domain comes from the species named
Conditions: Homo sapiens

Variant	abundance fitness
Y67A	0.028 ± 0.093
Y67Q	0.051 ± 0.15
W38V	-0.887 ± 0.12
W38T	-0.632 ± 0.11
K32M	0.082 ± 0.057
K32W	-0.243 ± 0.049
K32R	-0.054 ± 0.036
K32H	-0.154 ± 0.039
I30M	-0.254 ± 0.063
I30S	-0.858 ± 0.071
I30P	-0.976 ± 0.18
I30A	-0.605 ± 0.1
Q12T	-0.166 ± 0.079
K68R	-0.068 ± 0.079
Y64N	0.124 ± 0.12
Y64S	0.063 ± 0.056
Y64C	-0.056 ± 0.2
A6M	-1.01 ± 0.098
K46C	-0.814 ± 0.087
K46Y	-1 ± 0.13
K46V	-0.798 ± 0.061
K46H	-1.09 ± 0.14
H26I	-0.088 ± 0.11
H26W	-0.281 ± 0.079
H26L	-0.1 ± 0.051
H26C	0.127 ± 0.084

Variant	abundance fitness
F49Q	-0.972 ± 0.15
F49M	-1.08 ± 0.31
F49Y	-0.044 ± 0.11
F49S	-0.763 ± 0.098
R15T	-0.345 ± 0.078
R15S	-0.335 ± 0.039
R15W	-0.502 ± 0.063
R15M	-0.177 ± 0.053
E20F	-0.601 ± 0.19
E20G	-0.343 ± 0.11
E20C	-0.478 ± 0.19
E20L	-0.284 ± 0.076
R37P	-0.811 ± 0.16
R37A	0.133 ± 0.053
R37C	-0.366 ± 0.2
M61A	-0.061 ± 0.067
M61G	0.022 ± 0.069
A53C	-0.824 ± 0.27
K36C	-0.482 ± 0.28
K36D	-0.362 ± 0.25
I50E	0.009 ± 0.081
D43L	-0.151 ± 0.044
D43W	-0.106 ± 0.043
L40I	-0.468 ± 0.064
K42I	-0.609 ± 0.17
K42A	-0.066 ± 0.079

Variant	abundance fitness
K42Q	-0.104 ± 0.063
S11T	-0.69 ± 0.11
S11Y	-0.29 ± 0.048
D63T	-0.104 ± 0.041
D63H	-0.168 ± 0.057
D63M	0.055 ± 0.052
D63P	-0.117 ± 0.074
D63Y	-0.233 ± 0.057
P65H	-0.09 ± 0.11
P65G	-0.059 ± 0.09
H60F	-0.193 ± 0.21
H60C	-0.205 ± 0.13
D45W	-0.344 ± 0.12
D45L	-0.378 ± 0.09
S44E	0.119 ± 0.1
R2S	0.003 ± 0.093
R2I	-0.012 ± 0.12
R2M	-0.088 ± 0.062
R2D	-0.053 ± 0.13
P48M	-0.168 ± 0.069
M4E	-0.202 ± 0.081
M4C	-0.709 ± 0.22
L41K	-0.653 ± 0.11
M8R	-0.176 ± 0.038
R57P	-0.236 ± 0.093
R57T	-0.19 ± 0.17

Variant	abundance fitness
R57A	0.06 ± 0.062
R57W	-0.32 ± 0.11
N5D	-0.032 ± 0.15
N5G	-0.278 ± 0.081
N5W	-0.439 ± 0.16
S22G	-0.4 ± 0.041
R33Q	0.332 ± 0.077
R33E	0.316 ± 0.067
R33S	-0.1 ± 0.07
R33A	0.121 ± 0.078
W10Y	-0.554 ± 0.2
W10S	-0.893 ± 0.14
W10V	-0.621 ± 0.1
W10R	-0.649 ± 0.093
W10T	-0.958 ± 0.24
K1Y	-0.116 ± 0.13
K1Q	-0.788 ± 0.33
K1C	-0.206 ± 0.095
K1T	-0.379 ± 0.082
M25C	-0.258 ± 0.1
M25W	-0.672 ± 0.12
E54Q	-0.071 ± 0.062
E54F	-0.574 ± 0.056
E54I	-0.701 ± 0.067
K17E	-1.1 ± 0.42
L58Q	0.046 ± 0.12
